Measured values: US20060057696A1, “Sugar chain synthases” (priority 2002, published 2006)

T1: PA-hST6Gal II (human ST6Gal II) (Homo sapiens, UniProt Q96JF0)
T1 construct: amino acids 33-529 in the case of human ST6Gal II; signal peptide of mouse immunoglobulin IgM (N); made in house; host or cells: COS-7 cells, transient expression of pcDSA-hST6Gal II; protein recovered from medium on IgG-Sepharose
T1 sequence (Q96JF0 33-529): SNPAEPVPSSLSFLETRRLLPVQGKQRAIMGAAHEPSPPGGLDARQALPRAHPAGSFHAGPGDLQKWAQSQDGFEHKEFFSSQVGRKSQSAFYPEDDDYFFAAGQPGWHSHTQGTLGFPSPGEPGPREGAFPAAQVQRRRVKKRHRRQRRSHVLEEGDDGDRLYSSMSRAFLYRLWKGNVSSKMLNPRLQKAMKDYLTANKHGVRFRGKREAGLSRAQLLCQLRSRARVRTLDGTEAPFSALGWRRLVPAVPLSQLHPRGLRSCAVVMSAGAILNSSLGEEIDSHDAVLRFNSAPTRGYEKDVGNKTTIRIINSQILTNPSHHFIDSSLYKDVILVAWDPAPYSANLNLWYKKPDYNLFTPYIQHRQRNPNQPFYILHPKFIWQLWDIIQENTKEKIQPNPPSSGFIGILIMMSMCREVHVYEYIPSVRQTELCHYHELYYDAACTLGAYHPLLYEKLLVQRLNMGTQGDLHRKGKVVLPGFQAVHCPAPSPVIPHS

T2: PA-hST8Sia VI (human ST8Sia VI) (Homo sapiens, UniProt P61647, L267F)
T2 construct: amino acids 68-398 in the case of human ST8Sia VI; signal peptide of mouse immunoglobulin IgM (N); made in house; host or cells: COS-7 cells, transient expression of pcDSA-hST8Sia VI; protein recovered from medium on IgG-Sepharose
T2 sequence (P61647 68-398 L267F): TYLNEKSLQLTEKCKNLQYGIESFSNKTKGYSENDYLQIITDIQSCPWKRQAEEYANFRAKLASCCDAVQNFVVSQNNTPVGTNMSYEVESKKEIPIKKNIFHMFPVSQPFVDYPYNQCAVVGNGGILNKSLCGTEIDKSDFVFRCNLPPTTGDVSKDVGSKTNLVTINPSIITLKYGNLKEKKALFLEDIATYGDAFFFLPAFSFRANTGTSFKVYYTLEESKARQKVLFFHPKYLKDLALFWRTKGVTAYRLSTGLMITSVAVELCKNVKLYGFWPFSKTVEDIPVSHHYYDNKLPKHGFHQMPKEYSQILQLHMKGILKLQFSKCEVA

B1: Ovomucoid: glycoprotein acceptor substrate which contains only N-glycans (protein, UniProt P01005 25-210, looked up)
Ovomucoid: AEVDCSRFPNATDKEGKDVLVCNKDLRPICGTDGVTYTNDCLLCAYSIEFGTNISKEHDGECKETVPMNCSSYANTTSEDGKVMVLCNRAFNPVCGTDGVTYDNECLLCAHKVEQGASVDKRHDGGCRKELAAVSVDCSEYPKPDCTAEDRPLCGSDNKTYGNKCNFCNAVVESNGTLTLSHFGKC
B2: Asialoovomucoid: desialylated ovomucoid prepared at 80° C. for 1 hour in 0.02 N HCl (protein, UniProt P01005 25-210, looked up)
Ovomucoid: AEVDCSRFPNATDKEGKDVLVCNKDLRPICGTDGVTYTNDCLLCAYSIEFGTNISKEHDGECKETVPMNCSSYANTTSEDGKVMVLCNRAFNPVCGTDGVTYDNECLLCAHKVEQGASVDKRHDGGCRKELAAVSVDCSEYPKPDCTAEDRPLCGSDNKTYGNKCNFCNAVVESNGTLTLSHFGKC
modifications: desialylated
notes: desialylated ovomucoid prepared at 80° C. for 1 hour in 0.02 N HCl

Experiments:
[1] = target: T1, PA-hST6Gal II (human ST6Gal II); assay: Sialyltransferase activity of PA-hST6Gal II toward acceptor substrates; assay type: biochemical; settings: PA-hST6Gal II; incorporation with Galβ1,4GlcNAc taken as 100; 0.5 mg/ml glycolipids, 1 mg/ml glycoproteins and oligosaccharides
Method: Using each expression vector and lipofectamine (Invitrogen), transient expression was carried out in COS-7 cells (Kojima, N. et al. (1995) FEBS Lett. 360, 1-4). The proteins of the present invention secreted from the cells into which each expression vector had been introduced were named as PA-hST6Gal II (human) and PA-mST6Gal II (mouse). PA-hST6Gal II and PA-mST6Gal II were adsorbed to IgG-Sepharose (Amersham Pharmacia Biotech), and were then recovered from medium. Sialyltransferase activity was measured as follows according to the method of Lee et al. (Lee, Y.-C. et al. (1999) J Biol. Chem. 274, 11958-11967). A reaction mixture (10 μl) containing 50 mM MES buffer (pH 6.0), 1 mM MgCl2, 1 mM CaCl2, 0.5% Triton CF-54, 100 μM CMP-[^14C]-NeuAc, a substrate sugar chain (which was added at 0.5 mg/ml in the case of glycolipids, and at 1 mg/ml in the case of glycoproteins or oligosaccharides), and a PA-hST6Gal II or PA-mST6Gal II suspension, was incubated at 37° C. for 3 to 20 hours. Thereafter, in the case of glycolipids, the reaction product was purified with a C-18 column (Sep-Pak Vac 100 mg; Waters) and the purified product was used as a sample. In the case of oligosaccharides or glycoproteins, the reaction product was directly used as a sample. Thus, the obtained sample was subjected to analysis. In the case of oligosaccharides or glycolipids, the sample was spotted on a silica gel 60 HPTLC plate (Merck), and it was then developed with a developing solvent consisting of 1-propanol:ammonia water:water=6:1:2.5 (for oligosaccharides), or a developing solvent consisting of chloroform:methanol: 0.02% CaCl2=55:45:10 (for glycolipids). In the case of glycoproteins, analysis was carried out by SDS-polyacrylamide gel electrophoresis. The obtained radioactivities were visualized with a BAS2000 radio image analyzer (Fuji Film) and then quantified.

[2] = target: T2, PA-hST8Sia VI (human ST8Sia VI); assay: Sialyltransferase activity of PA-hST8Sia VI toward acceptor substrates; assay type: biochemical; settings: incorporation with Fetuin taken as 100, substrate 0.5 mg/ml glycolipids, 1 mg/ml glycoproteins, monosaccharides and oligosaccharides
Method: Using each expression vector and lipofectamine (Invitrogen), transient expression was carried out in COS-7 cells (Kojima, N. et al. (1995) FEBS Lett. 360, 1-4). The proteins of the present invention secreted from the cells into which each expression vector had been introduced were named as PA-mST8Sia VI (mouse) and PA-hST8Sia VI (human). PA-mST8Sia VI and PA-hST8Sia VI were adsorbed to IgG-Sepharose (Amersham Pharmacia Biotech), and were then recovered from medium. Sialyltransferase activity was measured as follows according to the method of Lee et al. (Lee, Y.-C. et al. (1999) J. Biol. Chem. 274, 11958-11967). A reaction solution (10 μl) containing 50 mM MES buffer (pH 6.0), 1 mM MgCl2, 1 mM CaCl2, 0.5% Triton CF-54, 100 μM CMP-[^14C]-NeuAc, a glycoconjugate (which was added at 0.5 mg/ml in the case of glycolipids, and at 1 mg/ml in the case of glycoproteins or oligosaccharides), and a PA-mST8Sia VI or PA-hST8Sia VI suspension, was incubated at 37° C. for 3 to 20 hours. Thereafter, in the case of glycolipids, the reaction product was purified with a C-18 column (Sep-Pak Vac 100 mg; Waters) and the purified product was used as a sample, and in the case of oligosaccharides or glycoproteins, the reaction product was directly used as a sample. Thus, the obtained samples were subjected to analysis. In the case of oligosaccharides or glycolipids, the sample was spotted on a silica gel 60 HPTLC plate (Merck), and was then developed with a developing solvent consisting of ethanol:pyridine:n-butanol:water:acetic acid=100:10:10:30:3 (for oligosaccharides), a developing solvent consisting of 1-propanol:ammonia water:water=6:1:2.5 (for oligosaccharides), or a developing solvent consisting of chloroform:methanol: 0.02% CaCl2=55:45:10 (for glycolipids). In the case of glycoproteins, analysis was carried out by SDS-polyacrylamide gel electrophoresis. The obtained radioactivities were visualized with a BAS2000 radio image analyzer (Fuji Film) and then quantified.

| Molecule | Relative rate (%) Human ST6Gal II [1] | Relative rate (%) Human ST8Sia VI [2] |
| --- | --- | --- |
| Asialo- α1-Acid glycoprotein: desialylated α1-acid glycoprotein prepared at 80° C. for 1 hour in 0.02 N HCl | 1.2% | 0% |
| Galβ1,4Glcβ1-Cer [Lactosylceramide] | 0% |  |
| Fetuin: glycoprotein acceptor substrate containing both O-glycans and N-glycans, purchased from Sigma | 0% | 100% |
| NeuAcα2,3Galβ1,4Glcβ1-Cer [GM3] | 0% | 1.6% |
| α1-Acid glycoprotein: glycoprotein acceptor substrate purchased from Sigma | 1.2% | 0% |
| Galβ1,3GalNAcβ1,4(NeuAcα2,3)Galβ1,4Glcβ1-Cer [GM1a] | 0% |  |
| Asialofetuin: asialo glycoprotein acceptor substrate purchased from Sigma | 3.9% | 0% |
| B1 | 0% | 12.3% |
| B2 | 0% | 0% |
